{"source": "patent US20150203575A1", "about": "(Genentech, published 2015)", "key": {"[1]": {"target": "T1, human COLEC12 expressed on cells (human, UniProt Q5KU26 1-742)", "T1 construct": "also called hCOLEC12; C-terminal his tagged hCOLEC12", "T1 sequence (Q5KU26 whole entry S522P/G606S)": "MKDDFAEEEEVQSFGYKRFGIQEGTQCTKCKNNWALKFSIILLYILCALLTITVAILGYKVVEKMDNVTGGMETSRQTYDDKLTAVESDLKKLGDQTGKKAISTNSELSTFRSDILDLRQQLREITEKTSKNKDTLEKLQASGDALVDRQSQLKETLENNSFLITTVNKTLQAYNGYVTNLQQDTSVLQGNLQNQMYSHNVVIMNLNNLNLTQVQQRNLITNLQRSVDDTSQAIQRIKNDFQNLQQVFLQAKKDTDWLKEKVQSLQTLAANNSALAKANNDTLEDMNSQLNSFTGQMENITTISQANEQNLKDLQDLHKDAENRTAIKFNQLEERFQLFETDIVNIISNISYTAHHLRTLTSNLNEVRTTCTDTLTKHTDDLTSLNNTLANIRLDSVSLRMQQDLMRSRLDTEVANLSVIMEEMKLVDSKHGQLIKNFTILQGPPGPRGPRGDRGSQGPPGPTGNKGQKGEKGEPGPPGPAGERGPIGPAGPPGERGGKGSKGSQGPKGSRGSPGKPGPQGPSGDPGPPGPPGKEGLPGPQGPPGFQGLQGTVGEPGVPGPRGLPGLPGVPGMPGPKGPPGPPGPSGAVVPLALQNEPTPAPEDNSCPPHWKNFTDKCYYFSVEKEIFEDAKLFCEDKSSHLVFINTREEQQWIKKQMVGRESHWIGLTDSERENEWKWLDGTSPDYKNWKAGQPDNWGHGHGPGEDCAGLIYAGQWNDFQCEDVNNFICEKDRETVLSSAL", "assay": "flow cytometry, transfected 293T cells"}, "[2]": {"target": "T2, MAG expressed on cells (human, UniProt P20916 20-626)", "T2 construct": "Clone of the Origene human cDNA library; also called Myelin associated glycoprotein; SIGLEC4A", "T2 sequence": "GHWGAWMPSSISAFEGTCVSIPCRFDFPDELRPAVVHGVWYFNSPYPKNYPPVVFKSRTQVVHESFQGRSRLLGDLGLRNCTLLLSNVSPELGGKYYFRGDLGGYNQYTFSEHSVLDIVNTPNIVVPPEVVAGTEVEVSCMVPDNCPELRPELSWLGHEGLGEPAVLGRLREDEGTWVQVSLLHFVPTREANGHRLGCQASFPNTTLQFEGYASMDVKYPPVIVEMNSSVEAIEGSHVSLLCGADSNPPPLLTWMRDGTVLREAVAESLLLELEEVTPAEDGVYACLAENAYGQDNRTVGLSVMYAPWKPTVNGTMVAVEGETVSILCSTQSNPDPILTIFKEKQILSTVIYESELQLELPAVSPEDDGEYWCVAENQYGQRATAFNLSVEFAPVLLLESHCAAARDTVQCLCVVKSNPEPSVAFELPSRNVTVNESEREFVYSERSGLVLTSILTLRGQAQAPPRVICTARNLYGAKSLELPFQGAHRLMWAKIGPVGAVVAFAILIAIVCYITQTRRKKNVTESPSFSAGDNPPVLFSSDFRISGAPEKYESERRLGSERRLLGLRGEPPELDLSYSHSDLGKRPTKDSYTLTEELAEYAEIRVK", "assay": "flow cytometry, transfected 293T cells"}, "[3]": {"target": "T3, LRRTM4 expressed on cells (human, UniProt Q86VH4 31-590)", "T3 construct": "Clone of the Origene human cDNA library; also called Leucine rich repeat transmembrane neuronal 4", "T3 sequence (Q86VH4 31-590 limits assumed)": "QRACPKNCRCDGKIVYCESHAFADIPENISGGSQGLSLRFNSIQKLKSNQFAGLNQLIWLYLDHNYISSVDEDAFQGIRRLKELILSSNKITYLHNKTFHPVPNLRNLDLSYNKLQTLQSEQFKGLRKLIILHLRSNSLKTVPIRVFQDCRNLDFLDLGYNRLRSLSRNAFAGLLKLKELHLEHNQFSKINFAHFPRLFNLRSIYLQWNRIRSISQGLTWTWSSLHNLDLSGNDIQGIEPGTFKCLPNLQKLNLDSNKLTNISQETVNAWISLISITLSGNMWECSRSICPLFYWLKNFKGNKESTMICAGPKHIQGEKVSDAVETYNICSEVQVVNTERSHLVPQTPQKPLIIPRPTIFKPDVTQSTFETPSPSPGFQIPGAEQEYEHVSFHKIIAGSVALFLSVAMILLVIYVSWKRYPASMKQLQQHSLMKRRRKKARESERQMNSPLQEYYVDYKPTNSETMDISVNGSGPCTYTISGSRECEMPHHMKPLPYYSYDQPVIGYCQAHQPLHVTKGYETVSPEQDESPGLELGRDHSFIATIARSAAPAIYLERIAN", "assay": "flow cytometry, transfected 293T cells"}, "[4]": {"target": "T4, IL-2Ra expressed on cells (human, UniProt P01589 22-272)", "T4 construct": "Clone of the Origene human cDNA library; also called Interleukin 2 receptor alpha", "T4 sequence": "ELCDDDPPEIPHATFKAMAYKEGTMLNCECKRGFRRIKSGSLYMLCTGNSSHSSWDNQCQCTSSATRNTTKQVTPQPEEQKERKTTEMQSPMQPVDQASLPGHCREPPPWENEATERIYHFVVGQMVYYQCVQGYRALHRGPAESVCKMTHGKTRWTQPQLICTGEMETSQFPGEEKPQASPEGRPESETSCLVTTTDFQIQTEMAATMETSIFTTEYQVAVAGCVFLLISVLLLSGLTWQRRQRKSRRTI", "assay": "flow cytometry, transfected 293T cells"}, "[5]": {"target": "T5, PSS8 expressed on cells (human, UniProt Q16651 30-343)", "T5 construct": "Clone of the Origene human cDNA library; also called Protease serine 8; prostasin", "T5 sequence (Q16651 30-343 limits assumed)": "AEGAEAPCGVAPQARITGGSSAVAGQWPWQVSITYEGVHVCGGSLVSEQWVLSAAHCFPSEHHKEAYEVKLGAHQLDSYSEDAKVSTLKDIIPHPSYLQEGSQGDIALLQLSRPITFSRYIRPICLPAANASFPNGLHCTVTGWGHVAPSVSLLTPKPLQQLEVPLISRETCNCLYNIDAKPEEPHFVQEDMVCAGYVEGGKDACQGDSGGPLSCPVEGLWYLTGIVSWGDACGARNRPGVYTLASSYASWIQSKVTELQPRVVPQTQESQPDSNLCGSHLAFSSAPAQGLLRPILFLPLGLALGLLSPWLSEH", "assay": "flow cytometry, transfected 293T cells"}, "[6]": {"target": "T6, CLEC4G expressed on cells (human, UniProt Q6UXB4 1-293)", "T6 construct": "Clone of the Origene human cDNA library; also called C type lectin superfamily 4 member G", "T6 sequence": "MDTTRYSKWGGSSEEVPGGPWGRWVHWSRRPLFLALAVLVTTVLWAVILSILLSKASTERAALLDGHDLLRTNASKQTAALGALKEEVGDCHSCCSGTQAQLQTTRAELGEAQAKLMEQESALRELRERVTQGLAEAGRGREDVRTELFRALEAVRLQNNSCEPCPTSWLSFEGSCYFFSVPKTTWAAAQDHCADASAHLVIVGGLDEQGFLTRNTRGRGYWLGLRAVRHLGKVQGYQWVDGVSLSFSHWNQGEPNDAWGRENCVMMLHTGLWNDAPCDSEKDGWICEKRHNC", "assay": "flow cytometry, transfected 293T cells, 50 µg/ml"}, "[7]": {"target": "T7, FceRII expressed on cells (human, UniProt P06734 1-321)", "T7 construct": "Clone of the Origene human cDNA library; also called FcRII", "T7 sequence": "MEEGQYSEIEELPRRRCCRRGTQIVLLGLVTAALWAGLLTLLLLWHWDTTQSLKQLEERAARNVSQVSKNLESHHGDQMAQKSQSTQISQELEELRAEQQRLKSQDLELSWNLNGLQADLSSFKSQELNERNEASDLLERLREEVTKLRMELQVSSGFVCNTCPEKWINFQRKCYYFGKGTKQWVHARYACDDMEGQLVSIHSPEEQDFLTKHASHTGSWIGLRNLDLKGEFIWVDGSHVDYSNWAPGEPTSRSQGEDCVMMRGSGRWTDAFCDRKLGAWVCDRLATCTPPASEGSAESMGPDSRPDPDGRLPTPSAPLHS", "assay": "flow cytometry, transfected 293T cells, 50 µg/ml"}, "[8]": {"target": "T2, MAG expressed on cells", "assay": "flow cytometry, transfected 293T cells, 50 µg/ml"}, "[9]": {"target": "T7, FceRII expressed on cells", "assay": "flow cytometry, transfected 293T cells, 50 µg/ml", "remark": "listed apart in the source"}, "[10]": {"target": "T8, BR3 expressed on cells (human, UniProt Q96RJ3 1-184)", "T8 construct": "Clone of the Origene human cDNA library", "T8 sequence": "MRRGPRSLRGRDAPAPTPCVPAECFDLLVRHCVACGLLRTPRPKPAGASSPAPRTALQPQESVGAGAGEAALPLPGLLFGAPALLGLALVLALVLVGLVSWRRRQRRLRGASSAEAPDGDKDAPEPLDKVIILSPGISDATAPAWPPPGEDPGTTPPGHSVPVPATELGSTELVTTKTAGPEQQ", "assay": "flow cytometry, transfected 293T cells, 50 µg/ml"}, "[11]": {"target": "T6, CLEC4G expressed on cells", "assay": "flow cytometry, transfected 293T cells"}, "[12]": {"target": "T3, LRRTM4 expressed on cells", "assay": "flow cytometry, transfected 293T cells", "remark": "listed apart in the source"}, "[13]": {"target": "T9, mouse CD99 expressed on 293T cells (mouse, UniProt Q8VCN6 29-175, sialylated O-glycans at Thr-45 and Thr-50 (cited as relevant for PILRα recognition))", "T9 construct": "whole, on cells; also called mCD99; mCD99 transfectants", "T9 sequence (looked up)": "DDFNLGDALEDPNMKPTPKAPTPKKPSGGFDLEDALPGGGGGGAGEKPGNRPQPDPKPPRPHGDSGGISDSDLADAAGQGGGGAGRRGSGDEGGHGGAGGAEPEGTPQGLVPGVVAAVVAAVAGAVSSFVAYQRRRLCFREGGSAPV", "assay": "flow cytometry, transfected 293T cells"}, "[14]": {"target": "T10, human NPDC1 expressed on cells (human, UniProt Q9NQX5 35-325)", "T10 construct": "also called hNPDC1; hNPCD1", "T10 sequence": "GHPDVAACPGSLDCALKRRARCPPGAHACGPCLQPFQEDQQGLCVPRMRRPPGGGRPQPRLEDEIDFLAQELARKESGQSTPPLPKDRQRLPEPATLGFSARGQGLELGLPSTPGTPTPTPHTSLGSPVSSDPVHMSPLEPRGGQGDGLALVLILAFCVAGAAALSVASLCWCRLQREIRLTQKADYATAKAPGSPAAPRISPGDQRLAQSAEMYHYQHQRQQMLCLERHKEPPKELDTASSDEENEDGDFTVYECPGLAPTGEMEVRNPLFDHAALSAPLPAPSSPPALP", "assay": "flow cytometry, transfected 293T cells"}, "[15]": {"target": "T8, BR3 expressed on cells", "assay": "flow cytometry, transfected 293T cells"}, "[16]": {"target": "T4, IL-2Ra expressed on cells", "assay": "flow cytometry, transfected 293T cells", "remark": "listed apart in the source"}, "[17]": {"target": "T5, PSS8 expressed on cells", "assay": "flow cytometry, transfected 293T cells", "remark": "listed apart in the source"}, "[18]": {"target": "T2, MAG expressed on cells", "assay": "flow cytometry, transfected 293T cells, 2 µg/ml"}, "[19]": {"target": "T3, LRRTM4 expressed on cells", "assay": "flow cytometry, transfected 293T cells, 2 µg/ml"}, "[20]": {"target": "T2, MAG expressed on cells", "assay": "flow cytometry, transfected 293T cells, 50 µg/ml", "remark": "listed apart in the source"}, "[21]": {"target": "T8, BR3 expressed on cells", "assay": "flow cytometry, transfected 293T cells, 2 µg/ml"}, "[22]": {"target": "T5, PSS8 expressed on cells", "assay": "flow cytometry, transfected 293T cells, 2 µg/ml"}, "[23]": {"target": "T11, mCD99-Fc (mouse, UniProt Q8VCN6 29-137, limits assumed, three O-glycans NeuAc1-2Hex1HexNAc1)", "T11 construct": "also called mouse CD99-Fc; mCD99 (SPR analyte); not shown: Fc", "T11 sequence (looked up)": "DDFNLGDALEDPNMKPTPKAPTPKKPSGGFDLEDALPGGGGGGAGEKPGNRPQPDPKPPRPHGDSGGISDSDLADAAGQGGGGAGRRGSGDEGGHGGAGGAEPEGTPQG", "assay": "SPR, hPILRα R126A-Fc immobilized, response difference"}, "[24]": {"target": "T12, hCOLEC12-his (human, UniProt Q5KU26 59-742, sialylated O-glycans and N-glycans)", "T12 construct": "Whole entry named; also called human COLEC12-his; hCOLEC12 (SPR); not shown: his tag", "T12 sequence (Q5KU26 59-742 S522P/G606S limits assumed)": "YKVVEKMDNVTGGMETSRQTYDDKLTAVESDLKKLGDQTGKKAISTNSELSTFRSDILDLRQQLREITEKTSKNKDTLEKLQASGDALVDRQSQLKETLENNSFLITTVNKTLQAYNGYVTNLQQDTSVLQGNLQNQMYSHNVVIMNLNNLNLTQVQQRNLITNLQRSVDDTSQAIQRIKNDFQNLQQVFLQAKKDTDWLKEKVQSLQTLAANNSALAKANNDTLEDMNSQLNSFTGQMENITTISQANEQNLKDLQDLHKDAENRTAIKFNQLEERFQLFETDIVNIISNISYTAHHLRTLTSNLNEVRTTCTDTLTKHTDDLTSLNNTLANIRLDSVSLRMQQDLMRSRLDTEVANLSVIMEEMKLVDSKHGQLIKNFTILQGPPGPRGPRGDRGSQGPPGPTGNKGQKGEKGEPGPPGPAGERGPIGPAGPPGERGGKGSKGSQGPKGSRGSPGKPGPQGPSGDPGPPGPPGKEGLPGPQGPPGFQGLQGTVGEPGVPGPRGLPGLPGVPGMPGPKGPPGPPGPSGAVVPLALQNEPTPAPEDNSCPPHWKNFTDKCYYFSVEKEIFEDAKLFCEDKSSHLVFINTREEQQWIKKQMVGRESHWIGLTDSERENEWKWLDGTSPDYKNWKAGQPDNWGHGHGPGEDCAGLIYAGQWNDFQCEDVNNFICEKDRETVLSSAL", "assay": "SPR, hPILRα R126A-Fc immobilized, response difference"}, "[25]": {"target": "T1, human COLEC12 expressed on cells", "assay": "flow cytometry, transfected 293T cells, ligand-expressing cells gated"}, "[26]": {"target": "T13, HSV1 glycoprotein B expressed on 293T cells (herpes simplex virus type 1, UniProt P10211 31-904)", "T13 construct": "whole, on cells; also called HSV-1 gB; HSV1 gB", "assay": "flow cytometry, transfected 293T cells, ligand-expressing cells gated"}}, "note": "Where two headings read alike, the source gives them in different places."}
{"binder": "mPILRβ (receptor, also called Mouse PILR-beta) not shown", "values": [{"measurement": "binding result", "setting": "[1]", "result": "no binding (tested: 50 µg/ml)"}, {"measurement": "binding result", "setting": "[2]", "result": "no binding (tested: 50 µg/ml)"}, {"measurement": "binding result", "setting": "[3]", "result": "no binding (tested: 50 µg/ml)"}, {"measurement": "binding result", "setting": "[4]", "result": "no binding (tested: 50 µg/ml)"}, {"measurement": "binding result", "setting": "[5]", "result": "no binding (tested: 50 µg/ml)"}, {"measurement": "% cells in lower right quadrant", "setting": "[6]", "result": 27.4, "unit": "%"}, {"measurement": "% cells in lower right quadrant", "setting": "[7]", "result": 3.98, "unit": "%"}, {"measurement": "% cells in lower right quadrant", "setting": "[8]", "result": 0.083, "unit": "%"}, {"measurement": "% cells in lower right quadrant", "setting": "[9]", "result": 3.98, "unit": "%"}, {"measurement": "% cells in lower right quadrant", "setting": "[10]", "result": 1.85, "unit": "%"}]}
{"binder": "hPILRαR126A-Fc (Fc fusion, Arg mutant of hPILRα-Fc; also called hPILRα R126-Fc; mutant hPILRα; not shown: Fc of mouse IgG2a (PILRα-mIgG2a, called PILRα-Fc)) QPSGSTGSGPSYLYGVTQPKHLSASMGGSVEIPFSFYYPWELATAPDVRISWRRGHFHRQSFYSTRPPSIHKDYVNRLFLNWTEGQKSGFLRISNLQKQDQSVYFCAVELDTRSSGRQQWQSIEGTKLSITQAVTTTTQRPSSMTTTWRLSSTTTTTGLRVTQGKRRSDSWHISLETA", "values": [{"measurement": "binding result", "setting": "[11]", "result": "no binding (tested: 50 µg/ml)"}, {"measurement": "binding result", "setting": "[12]", "result": "no binding (tested: 50 µg/ml)"}, {"measurement": "binding result", "setting": "[13]", "result": "no binding (tested: 50 µg/ml)"}, {"measurement": "binding result", "setting": "[14]", "result": "no binding (tested: 50 µg/ml)"}, {"measurement": "binding result", "setting": "[15]", "result": "no binding (tested: 50 µg/ml)"}, {"measurement": "binding result", "setting": "[16]", "result": "no binding (tested: 50 µg/ml)"}, {"measurement": "binding result", "setting": "[17]", "result": "no binding (tested: 50 µg/ml)"}, {"measurement": "% cells in lower right quadrant", "setting": "[18]", "result": 0.17, "unit": "%"}, {"measurement": "% cells in lower right quadrant", "setting": "[19]", "result": 0.11, "unit": "%"}, {"measurement": "% cells in lower right quadrant", "setting": "[20]", "result": 12.5, "unit": "%"}, {"measurement": "% cells in lower right quadrant", "setting": "[21]", "result": 0.47, "unit": "%"}, {"measurement": "% cells in lower right quadrant", "setting": "[22]", "result": 0.012, "unit": "%"}, {"measurement": "binding result", "setting": "[23]", "result": "no binding (tested: 1 µM)"}, {"measurement": "binding result", "setting": "[24]", "result": "no binding (tested: 1 µM)"}, {"measurement": "binding result", "setting": "[25]", "result": "no binding"}, {"measurement": "binding result", "setting": "[26]", "result": "no binding"}]}
